Measured values reported in PMC7253169.

What was measured:
[1] = target: BG505 SOSIP.664 Env trimer (HIV-1 (BG505)) (UniProt Q2N0S6); assay: ELISA; direct ELISA: plates coated with soluble BG505 SOSIP trimer (0.2 or 2 ng/μl) in PBS pH 7.4; serially diluted Fab mutants from cell culture supernatant, room temperature 1 hour; goat anti-human lambda HRP; compared with wild-type Fab on the same plate
[2] = target: BG505 SOSIP.664 Env trimer (HIV-1 (BG505)) (UniProt Q2N0S6)
[3] = target: BG505 SOSIP.664 Env trimer (UniProt Q2N0S6); assay: ELISA; settings: parent: 1

Substance | fold reduction of binding in ELISA against wild-type Fab [1] [fold] | neutralization on BG505 pseudovirus; fold reduction of potency against wild-type Fab [2] [fold] | ratio to parent [3]
NC-Cow1 Fab ArgD11 alanine mutant | > 9 | > 9 | –
NC-Cow1 Fab AsnH100 alanine mutant | – | > 3 | –
Fab NC-Cow1 D:D5A | – | – | 1.9
Fab NC-Cow1 D:Q15A | – | – | 1.4
NC-Cow1 Fab GluD1 alanine mutant | – | > 3 | –
NC-Cow1 Fab ArgD33 alanine mutant | > 9 | > 9 | –
Fab NC-Cow1 D:G29A | – | – | 64.2
NC-Cow1 Fab ArgD27 alanine mutant | > 9 | > 9 | –
Fab NC-Cow1 D:R43A | – | – | 0.8
Fab NC-Cow1 D:M24A | – | – | 73.8
Fab NC-Cow1 D:S19A | – | – | 1
Fab NC-Cow1 D:Y40A | – | – | 1
Fab NC-Cow1 D:T7A | – | – | 1.3
Fab NC-Cow1 D:Q34A | – | – | 1.3
NC-Cow1 Fab ArgD43 alanine mutant | – | > 3 | –
NC-Cow1 Fab TyrD6 alanine mutant | > 9 | > 9 | –
Fab NC-Cow1 D:H42A | – | – | 1
NC-Cow1 Fab TyrD31 alanine mutant | > 9 | > 9 | –
Fab NC-Cow1 D:Q14A | – | – | 0.9
NC-Cow1 Fab TyrD40 alanine mutant | – | > 3 | –
Fab NC-Cow1 H:N100A | – | – | 1.6
NC-Cow1 Fab LysH100b alanine mutant | – | > 3 | –
Fab NC-Cow1 D:D26A | – | – | 0.8
Fab NC-Cow1 D:E1A | – | – | 1.2
